Reference: article PMC8362889

Target: 2-azido-ATP (2-N3-ATP-biotin-long chain-hydrazone)
Assay: photoaffinity labeling with 2-azido-ATP
Conditions: 2.0 μg of full-length AsphyA protein (∼0.16 μM), wild-type labeling at 100 μM set as 100%, read off a plot
[1] = 10 µM 2-azido-ATP, parent: est. 40
[2] = 20 µM 2-azido-ATP, parent: est. 63
[3] = 50 µM 2-azido-ATP, parent: est. 74
[4] = 100 µM 2-azido-ATP, parent: est. 100

Row | response [1] [%] | response [2] [%] | response [3] [%] | response [4] [%] | Substance
1 | 91 | 120 | 140 | 150 | Avena sativa phytochrome A, wild type, full-length recombinant protein with C-terminal strep-tag K411R
2 | 61 | 75 | 92 | 110 | Avena sativa phytochrome A, wild type, full-length recombinant protein with C-terminal strep-tag K411E
3 | 82 | 120 | 140 | 140 | Avena sativa phytochrome A, wild type, full-length recombinant protein with C-terminal strep-tag T418V
